The numbers were not newly measured in PMC6886688, which cites them from elsewhere.

The test system of the series is Tyr134.

As a reminder, the pKa is the pH at which an ionisable group is half protonated. As for “Cellular retinoic acid binding protein 2 (CRABP2) (Homo sapiens (inferred; not stated in the article))”, the pKa is reported as around 7.6.
